Data published in patent publication US20240042032A1 (TENEOBIO, published 2024).

T1: human CD19 on CD19+ cells (Raji, Daudi, Ramos, SU-DHL-10, Nalm6) (human, UniProt P15391 20-556)
T1 construct: whole, on cells; also called B-Lymphocyte Surface Antigen B4
T1 sequence (looked up): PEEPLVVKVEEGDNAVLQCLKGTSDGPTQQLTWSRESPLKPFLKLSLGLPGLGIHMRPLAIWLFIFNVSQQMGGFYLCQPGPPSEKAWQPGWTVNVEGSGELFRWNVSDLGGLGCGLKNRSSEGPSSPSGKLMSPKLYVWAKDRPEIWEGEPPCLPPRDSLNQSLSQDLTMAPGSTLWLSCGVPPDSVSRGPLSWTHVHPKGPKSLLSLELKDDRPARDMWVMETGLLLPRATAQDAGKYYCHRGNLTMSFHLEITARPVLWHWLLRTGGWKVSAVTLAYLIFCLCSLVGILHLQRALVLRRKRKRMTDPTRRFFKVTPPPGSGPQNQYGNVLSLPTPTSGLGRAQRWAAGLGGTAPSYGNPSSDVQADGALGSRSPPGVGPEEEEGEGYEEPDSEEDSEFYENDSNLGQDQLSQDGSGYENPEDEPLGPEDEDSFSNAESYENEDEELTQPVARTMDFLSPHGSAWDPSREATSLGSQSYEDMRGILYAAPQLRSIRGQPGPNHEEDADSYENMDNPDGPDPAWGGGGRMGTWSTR


Molecular target: T1, human CD19 on CD19+ cells (Raji, Daudi, …)
Assay: cell-binding assay on CD19+ cells

| binding result | Binder |
| --- | --- |
| binds | anti-CD19 heavy chain-only antibody (UniAb) clone ID 370083 (antibody, V domains shown, Heavy chain-only antibody with no light chain, tested as purified UniAb and detected with anti-human IgG; Only the VH is tied to the clone) VH: QVQLVESGGGLVKPGGSLRLSCAASGFTFSDYYMSWIRQAPGKGLEWVSYMSSSGSTIYYADSVKGRFTISRDNAKNSLYLQMTSLRAEDTAVYYCARGGIAATGTWGQGTLVTVSS |
| binds | anti-CD19 heavy chain-only antibody (UniAb) clone ID 370034 (antibody, V domains shown, Heavy chain-only antibody with no light chain, tested as purified UniAb and detected with anti-human IgG; Only the VH is tied to the clone; also called HCAb 370034) VH: QVQLVESGGGLVKPGGSLRLSCAASGFTFSDYYMSWIRQAPGKGLEWVSYMSSSGSTIYYADSVKGRFTISRDNAKKSLYLQMNSLRAEDTAVYYCARGGIAAAGTWGQGTLVTVSS |
